The values below come from patent publication US20200024360A1 (Janssen / Centocor, published 2020).

The term Kd denotes the equilibrium constant for the complex coming apart. A word on the koff: it is the first-order rate constant of dissociation. For orientation: kon means a measure of how fast the partners come together. As a reminder, the EC50 is the concentration that produces a half-maximal response. Low readings indicate greater potency, high ones weaker potency.

In experiment [1] the target is T1, recombinant chimpanzee PSMA extracellular domain (ECD) protein (Pan troglodytes, UniProt Q04609 44-750 (human entry)).
T1 construct: also called Chimp PSMA ECD; PSMG8
T1 chain: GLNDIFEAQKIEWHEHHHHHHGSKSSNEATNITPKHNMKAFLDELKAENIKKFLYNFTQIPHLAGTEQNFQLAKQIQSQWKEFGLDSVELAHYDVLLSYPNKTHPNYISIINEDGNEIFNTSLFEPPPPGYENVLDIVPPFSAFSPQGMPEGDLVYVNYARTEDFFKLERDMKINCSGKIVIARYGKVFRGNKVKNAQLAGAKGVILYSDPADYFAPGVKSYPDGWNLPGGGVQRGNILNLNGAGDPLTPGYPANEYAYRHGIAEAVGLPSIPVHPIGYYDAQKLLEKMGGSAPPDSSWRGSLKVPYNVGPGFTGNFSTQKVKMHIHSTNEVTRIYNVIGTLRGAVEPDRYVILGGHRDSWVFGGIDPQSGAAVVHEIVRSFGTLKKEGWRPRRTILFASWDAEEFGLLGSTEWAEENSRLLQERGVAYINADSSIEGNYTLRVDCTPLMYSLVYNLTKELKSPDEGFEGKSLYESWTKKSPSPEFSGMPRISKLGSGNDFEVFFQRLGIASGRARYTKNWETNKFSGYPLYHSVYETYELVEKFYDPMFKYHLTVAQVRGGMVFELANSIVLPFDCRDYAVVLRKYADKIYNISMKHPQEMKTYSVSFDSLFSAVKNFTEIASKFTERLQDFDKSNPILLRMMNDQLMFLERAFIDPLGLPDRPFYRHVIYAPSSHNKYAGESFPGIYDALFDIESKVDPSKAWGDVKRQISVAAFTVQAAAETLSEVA
Kind of experiment: SPR Biacore 3000, bsAb captured by anti-Fc. Here is the method:
Binding to recombinant Chimp PSMA by Biacore. The Affinity measurements using Surface Plasmon Resonance (SPR) were performed using a Biacore 3000 optical biosensor (Biacore-GE Healthcare). A biosensor surface was prepared by coupling anti-Human IgG Fc (Jackson ImmunoResearch Laboratory, cat #109-005-098) to the carboxymethylated dextran surface of a CM-5 chip (Biacore, cat # BR-1000-12) using the manufacturer instructions for amine-coupling chemistry. Approximately 16,000 RU (response units) of anti-Human IgG Fc antibodies were immobilized in each of four flow cells. The kinetic experiments were performed at 25° C. in running buffer (DPBS+0.03% P20+[…]). Dilutions of antigen (recombinant Chimp PSMA, concentration either from 1.2-300 nM or 3.7-900 nM in a 3-fold serial dilution) were prepared in running buffer. About 100 RU of PSMA×CD3 bispecific mAbs were captured on flow cell 2 to 4 of the sensor chip. Flow cell 1 was used as reference surface. Capture of PSMA×CD3 bispecific mAb was followed by a 3 or 5-minute injection (association phase) of antigen (recombinant Chimp PSMA) at 50 μl/min, followed by 15 or 20 minutes of buffer flow (dissociation phase). The chip surface was regenerated by two 18-second injections of 100 mM Phosphoric acid (H₃PO₄, Sigma, cat #7961) at 50 μl/min.
The collected data were processed using BIAevaluation software (Biacore). First, double reference subtraction of the data was performed by subtracting the curves generated by buffer injection from the reference-subtracted curves for analyte injections. Then kinetic analysis of the data was performed using a Langmuir 1:1 binding model with global fit. The result for each PSMA×CD3 bispecific mAb was reported in the format of kₐ (On-rate), kd (Off-rate) and KD (Equilibrium dissociation constant).
A general note: Surface plasmon resonance follows binding to a sensor surface in real time, without labels.

Experiment [2] addresses T2, human PSMA (prostate specific membrane antigen), full length (human, UniProt Q04609 1-750).
T2 construct: On LNCaP or C4-2B cells (endogenous) or transduced HEK293F cells; also called FOLH1_HUMAN; hPSMA
Kind of experiment: FACS, whole cell binding, LNCaP. Here is the method:
PSMA×CD3 bispecific antibodies were tested for binding to PSMA positive cell lines LNCAP, human PSMA-HEK, Chimpanzee-PSMA-HEK and Cynomolgous monkey PSMA-HEK. To assess the binding capabilities of the PSMA bispecific antibodies, the cell-binding assay was utilized (described previously). Briefly, PSMA expressing tumor cells are bound by bispecific antibodies at known concentrations and the bound antibody is detected by an anti-human kappa light chain PE conjugated detection reagent (Invitrogen). The Mean Fluorescents Intensity (MFI) is the measure of bound bispecific antibody. The MFI is converted to a relative EC₅₀. EC₅₀ is a commonly used dose-response curve, where the half maximal effective concentration or the EC₅₀ point is defined as the inflection point of the curve. EC₅₀ s were determined by measuring cell bound bispecific and known concentrations. […] The dose response curves were then diluted down to that of background or no bispecific binding. The inflection point of this curve reflects the EC₅₀ point. The calculated EC₅₀ is determined by taking the ug/ml amount of bispecific antibody at the EC₅₀ point and converting it to a molarity value based on the MW of the bispecific antibody. Bispecific antibodies were normalized for protein concentration and then incubated with the same number of cells expressing either human or cyno PSMA. The MFI at each concentration was collected by flow cytometry and plotted as a function of concentration. Data was transformed via log 10 and then plotted. Nonlinear regression of binding curves was done to determine EC₅₀ s. These relative values were used for ranking PSMA binding to target cells.
Background: A flow cytometer gives signals particle by particle.

T2 sequence (Q04609 whole entry): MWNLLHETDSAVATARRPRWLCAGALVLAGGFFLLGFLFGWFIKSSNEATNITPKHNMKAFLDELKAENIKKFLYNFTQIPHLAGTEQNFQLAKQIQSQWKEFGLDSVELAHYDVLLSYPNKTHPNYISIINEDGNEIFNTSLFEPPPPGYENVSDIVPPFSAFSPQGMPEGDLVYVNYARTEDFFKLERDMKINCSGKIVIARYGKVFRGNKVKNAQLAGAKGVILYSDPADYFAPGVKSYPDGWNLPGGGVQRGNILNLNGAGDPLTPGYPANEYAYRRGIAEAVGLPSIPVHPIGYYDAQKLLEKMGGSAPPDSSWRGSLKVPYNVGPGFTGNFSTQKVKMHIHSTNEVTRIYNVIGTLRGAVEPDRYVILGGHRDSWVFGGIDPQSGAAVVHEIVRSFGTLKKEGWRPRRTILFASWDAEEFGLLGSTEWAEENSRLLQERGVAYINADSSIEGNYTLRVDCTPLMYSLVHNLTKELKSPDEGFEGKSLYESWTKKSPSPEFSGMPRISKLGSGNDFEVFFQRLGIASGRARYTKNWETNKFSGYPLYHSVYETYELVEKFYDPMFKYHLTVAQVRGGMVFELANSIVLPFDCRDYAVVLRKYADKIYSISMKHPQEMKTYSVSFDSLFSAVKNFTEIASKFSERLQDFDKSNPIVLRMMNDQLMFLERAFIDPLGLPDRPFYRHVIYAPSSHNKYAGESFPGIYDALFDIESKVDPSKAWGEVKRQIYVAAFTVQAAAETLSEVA

B1: PS3B19 (bispecific antibody, human IgG4 S228P, kappa, lambda, F234A L235A)
heavy 1: not shown
light 1: not shown
heavy 2: EVQLVESGGGLVQPGGSLRLSCAASGFTFNTYAMNWVRQAPGKGLEWVARIRSKYNNYATYYAASVKGRFTISRDDSKNSLYLQMNSLKTEDTAVYYCARHGNFGNSYVSWFAYWGQGTLVTVSSASTKGPSVFPLAPCSRSTSESTAALGCLVKDYFPEPVTVSWNSGALTSGVHTFPAVLQSSGLYSLSSVVTVPSSSLGTKTYTCNVDHKPSNTKVDKRVESKYGPPCPPCPAPEAAGGPSVFLFPPKPKDTLMISRTPEVTCVVVDVSQEDPEVQFNWYVDGVEVHNAKTKPREEQFNSTYRVVSVLTVLHQDWLNGKEYKCKVSNKGLPSSIEKTISKAKGQPREPQVYTLPPSQEEMTKNQVSLTCLVKGFYPSDIAVEWESNGQPENNYKTTPPVLDSDGSFLLYSKLTVDKSRWQEGNVFSCSVMHEALHNHYTQKSLSLSLGK
light 2: QTVVTQEPSLTVSPGGTVTLTCRSSTGAVTTSNYANWVQQKPGQAPRGLIGGTNKRAPGTPARFSGSLLGGKAALTLSGVQPEDEAEYYCALWYSNLWVFGGGTKLTVLGQPKAAPSVTLFPPSSEELQANKATLVCLISDFYPGAVTVAWKADSSPVKAGVETTTPSKQSNNKYAASSYLSLTPEQWKSHRSYSCQVTHEGSTVEKTVAPTECS
notes: IgG4 PAA; PSMA arm chains first, then CD3 arm (F405L, R409K); also called PSMB119 x CD3B219
B1: in experiment [1], the Kd turned out to be 0.0663 µM, the koff came out at 0.000414 s⁻¹ and the on-rate (kon) was determined as 6240 M⁻¹ s⁻¹. In addition, the binding result in experiment [2] was “binds”.

B2: PS3B24 (bispecific antibody, human IgG4 S228P, kappa, lambda, F234A L235A)
heavy 1: not shown
light 1: not shown
heavy 2: EVQLVESGGGLVQPGGSLRLSCAASGFTFNTYAMNWVRQAPGKGLEWVARIRSKYNNYATYYAASVKGRFTISRDDSKNSLYLQMNSLKTEDTAVYYCARHGNFGNSYVSWFAYWGQGTLVTVSSASTKGPSVFPLAPCSRSTSESTAALGCLVKDYFPEPVTVSWNSGALTSGVHTFPAVLQSSGLYSLSSVVTVPSSSLGTKTYTCNVDHKPSNTKVDKRVESKYGPPCPPCPAPEAAGGPSVFLFPPKPKDTLMISRTPEVTCVVVDVSQEDPEVQFNWYVDGVEVHNAKTKPREEQFNSTYRVVSVLTVLHQDWLNGKEYKCKVSNKGLPSSIEKTISKAKGQPREPQVYTLPPSQEEMTKNQVSLTCLVKGFYPSDIAVEWESNGQPENNYKTTPPVLDSDGSFLLYSKLTVDKSRWQEGNVFSCSVMHEALHNHYTQKSLSLSLGK
light 2: QTVVTQEPSLTVSPGGTVTLTCRSSTGAVTTSNYANWVQQKPGQAPRGLIGGTNKRAPGTPARFSGSLLGGKAALTLSGVQPEDEAEYYCALWYSNLWVFGGGTKLTVLGQPKAAPSVTLFPPSSEELQANKATLVCLISDFYPGAVTVAWKADSSPVKAGVETTTPSKQSNNKYAASSYLSLTPEQWKSHRSYSCQVTHEGSTVEKTVAPTECS
notes: IgG4 PAA; PSMA arm chains first, then CD3 arm (F405L, R409K); also called PSMB124 x CD3B219
In the case of B2, in experiment [1], the dissociation constant (Kd) is 0.0386 µM, the koff turned out to be 0.000907 s⁻¹ and the on-rate (kon) was found to be 23500 M⁻¹ s⁻¹. For the same molecule, the binding result in experiment [2] was “binds”.

B3: PS3B28 (bispecific antibody, human IgG4 S228P, kappa, lambda, F234A L235A)
heavy 1: not shown
light 1: not shown
heavy 2: EVQLVESGGGLVQPGGSLRLSCAASGFTFNTYAMNWVRQAPGKGLEWVARIRSKYNNYATYYAASVKGRFTISRDDSKNSLYLQMNSLKTEDTAVYYCARHGNFGNSYVSWFAYWGQGTLVTVSSASTKGPSVFPLAPCSRSTSESTAALGCLVKDYFPEPVTVSWNSGALTSGVHTFPAVLQSSGLYSLSSVVTVPSSSLGTKTYTCNVDHKPSNTKVDKRVESKYGPPCPPCPAPEAAGGPSVFLFPPKPKDTLMISRTPEVTCVVVDVSQEDPEVQFNWYVDGVEVHNAKTKPREEQFNSTYRVVSVLTVLHQDWLNGKEYKCKVSNKGLPSSIEKTISKAKGQPREPQVYTLPPSQEEMTKNQVSLTCLVKGFYPSDIAVEWESNGQPENNYKTTPPVLDSDGSFLLYSKLTVDKSRWQEGNVFSCSVMHEALHNHYTQKSLSLSLGK
light 2: QTVVTQEPSLTVSPGGTVTLTCRSSTGAVTTSNYANWVQQKPGQAPRGLIGGTNKRAPGTPARFSGSLLGGKAALTLSGVQPEDEAEYYCALWYSNLWVFGGGTKLTVLGQPKAAPSVTLFPPSSEELQANKATLVCLISDFYPGAVTVAWKADSSPVKAGVETTTPSKQSNNKYAASSYLSLTPEQWKSHRSYSCQVTHEGSTVEKTVAPTECS
notes: IgG4 PAA; PSMA arm chains first, then CD3 arm (F405L, R409K); also called PSMB128 x CD3B219
In the case of B3, in experiment [1], the Kd was determined as 0.0308 µM, the off-rate (koff) came out at 0.00191 s⁻¹ and the kon came to 62000 M⁻¹ s⁻¹. In experiment [2], this molecule came in with a concentration for a half-maximal effect (EC50) of 1.16 mg/L.

B4: PS3B20 (bispecific antibody, human IgG4 S228P, kappa, lambda, F234A L235A)
heavy 1: not shown
light 1: not shown
heavy 2: EVQLVESGGGLVQPGGSLRLSCAASGFTFNTYAMNWVRQAPGKGLEWVARIRSKYNNYATYYAASVKGRFTISRDDSKNSLYLQMNSLKTEDTAVYYCARHGNFGNSYVSWFAYWGQGTLVTVSSASTKGPSVFPLAPCSRSTSESTAALGCLVKDYFPEPVTVSWNSGALTSGVHTFPAVLQSSGLYSLSSVVTVPSSSLGTKTYTCNVDHKPSNTKVDKRVESKYGPPCPPCPAPEAAGGPSVFLFPPKPKDTLMISRTPEVTCVVVDVSQEDPEVQFNWYVDGVEVHNAKTKPREEQFNSTYRVVSVLTVLHQDWLNGKEYKCKVSNKGLPSSIEKTISKAKGQPREPQVYTLPPSQEEMTKNQVSLTCLVKGFYPSDIAVEWESNGQPENNYKTTPPVLDSDGSFLLYSKLTVDKSRWQEGNVFSCSVMHEALHNHYTQKSLSLSLGK
light 2: QTVVTQEPSLTVSPGGTVTLTCRSSTGAVTTSNYANWVQQKPGQAPRGLIGGTNKRAPGTPARFSGSLLGGKAALTLSGVQPEDEAEYYCALWYSNLWVFGGGTKLTVLGQPKAAPSVTLFPPSSEELQANKATLVCLISDFYPGAVTVAWKADSSPVKAGVETTTPSKQSNNKYAASSYLSLTPEQWKSHRSYSCQVTHEGSTVEKTVAPTECS
notes: IgG4 PAA; PSMA arm chains first, then CD3 arm (F405L, R409K); also called PSMB120 x CD3B219
Consider B4, for which, in experiment [1], the Kd is 0.0591 µM, the koff is 0.000461 s⁻¹ and the association rate constant (kon) is 7820 M⁻¹ s⁻¹. In experiment [2], this molecule yielded a concentration for a half-maximal effect (EC50) of 123 mg/L.
